# Laboratory results from paper PMC12148503, “Molecular Basis of Interchain Disulfide Bond Formation in BMP-9 and BMP-10” (Journal of molecular biology, 2025).
# T1: Pro-(X)-BMP-10 R353K, O95393
# T1 chain: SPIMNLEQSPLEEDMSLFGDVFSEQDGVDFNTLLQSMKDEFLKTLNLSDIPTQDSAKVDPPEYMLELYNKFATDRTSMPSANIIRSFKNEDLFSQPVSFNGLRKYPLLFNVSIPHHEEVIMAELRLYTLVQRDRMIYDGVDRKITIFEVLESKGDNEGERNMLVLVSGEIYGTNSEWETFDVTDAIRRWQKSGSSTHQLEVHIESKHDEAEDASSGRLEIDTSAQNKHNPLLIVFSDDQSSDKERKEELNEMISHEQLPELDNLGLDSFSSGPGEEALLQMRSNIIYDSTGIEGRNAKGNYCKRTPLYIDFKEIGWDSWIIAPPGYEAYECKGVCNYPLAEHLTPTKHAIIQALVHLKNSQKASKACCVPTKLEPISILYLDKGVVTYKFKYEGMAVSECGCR
# B1: Pro-(X)-BMP-10, O95393 R353K (protein)
# chain: SPIMNLEQSPLEEDMSLFGDVFSEQDGVDFNTLLQSMKDEFLKTLNLSDIPTQDSAKVDPPEYMLELYNKFATDRTSMPSANIIRSFKNEDLFSQPVSFNGLRKYPLLFNVSIPHHEEVIMAELRLYTLVQRDRMIYDGVDRKITIFEVLESKGDNEGERNMLVLVSGEIYGTNSEWETFDVTDAIRRWQKSGSSTHQLEVHIESKHDEAEDASSGRLEIDTSAQNKHNPLLIVFSDDQSSDKERKEELNEMISHEQLPELDNLGLDSFSSGPGEEALLQMRSNIIYDSTGIEGRNAKGNYCKRTPLYIDFKEIGWDSWIIAPPGYEAYECKGVCNYPLAEHLTPTKHAIIQALVHLKNSQKASKACCVPTKLEPISILYLDKGVVTYKFKYEGMAVSECGCR
# B2: BMP-10 monomer (cysteinylated BMP-10 growth factor) (ligand)
# chain: NAKGNYCKRTPLYIDFKEIGWDSWIIAPPGYEAYECRGVCNYPLAEHLTPTKHAIIQALVHLKNSQKASKACCVPTKLEPISILYLDKGVVTYKFKYEGMAVSECGCR
# modifications: cysteinylated (+119 Da; the paper places it on the interchain cysteine)
# B3: BMP-10 disulfide-linked dimer (growth factor) (ligand)
# chain: NAKGNYCKRTPLYIDFKEIGWDSWIIAPPGYEAYECRGVCNYPLAEHLTPTKHAIIQALVHLKNSQKASKACCVPTKLEPISILYLDKGVVTYKFKYEGMAVSECGCR
# modifications: interchain disulfide
# Columns and labels:
# [1] = target: BMP-9 disulfide-linked dimer (wild-type growth factor) (human) (UniProt Q9UK05)
# [2] = target: BMP-9 monomer (cysteinylated BMP-9 growth factor) (human) (UniProt Q9UK05)
# [3] = target: T1, Pro-(X)-BMP-10 R353K, O95393; experiment: SDS-PAGE densitometry; settings: chain shown with the change; IMAC column purified Pro-BMP-10
# [4] = target: BMP-10 monomer (cysteinylated BMP-10 growth factor) (human) (UniProt O95393)
# [5] = target: BMP-10 disulfide-linked dimer (growth factor) (human) (UniProt O95393)
molecule,measurement,setting,value
BMP-9 disulfide-linked dimer (wild-type growth factor) (from UniProt Q9UK05 320-429) (ligand),"EC50 of pSMAD1/5/9 (western blot) in serum-starved HUVECs treated for 45 min with BMP-9 disulfide-linked dimer, 0.001-1.62 ng/mL",[1],3.3 pM
BMP-9 monomer (cysteinylated BMP-9 growth factor) (from UniProt Q9UK05 320-429) (ligand),"EC50 of pSMAD1/5/9 (western blot) in serum-starved HUVECs treated for 45 min with BMP-9 monomer, 0.01-54 ng/mL",[2],124 pM
B1,other: disulfide-linked dimer over monomer ratio,[3],0.9
B2,"EC50 of pSMAD1/5/9 (western blot) in serum-starved HUVECs treated for 45 min with BMP-10 monomer, 0.01-54 ng/mL",[4],164 pM
B3,"EC50 of pSMAD1/5/9 (western blot) in serum-starved HUVECs treated for 45 min with BMP-10 disulfide-linked dimer, 0.001-1.62 ng/mL",[5],5.9 pM
